These results are taken from article PMC8476742, “Mapping Potential Determinants of Peroxidative Activity in an Evolved Fungal Peroxygenase from Agrocybe aegerita” (Frontiers in Bioengineering and Biotechnology, 2021).

What all share (experiment): purified protein
Format in all cases: biochemical, Cyclocybe aegerita

Substrate in series [1]: O=[N+]([O-])c1ccc2c(c1)OCO2
The following applies: 1 mM H2O2, 100 mM potassium phosphate pH 7.0, 15% acetonitrile.

Substrate in series [2]: CCn1c(=NN=c2sc3cc(S(=O)(=O)O)ccc3n2CC)sc2cc(S(=O)(=O)O)ccc21
Substrate in series [3]: COc1ccc(CO)cc1OC
The following applies: 2 mM H2O2, 100 mM potassium phosphate pH 7.0, clone 23.

[4] abbreviates: 2 mM H2O2, 100 mM sodium phosphate-citrate pH 3.0, clone 8.
Where [5] appears, read: 2 mM H2O2, 100 mM sodium phosphate-citrate pH 3.0, clone 23.

Where a chain is given by its changes, count along the chain named. Names may count otherwise.

B1: PaDa-I (Cyclocybe aegerita; A359H/A360H/F354L/G361I/I291V/L110F/V100A/V118I) (protein)
chain: EPGLPPGPLENSSAKLVNDEAHPWKPLRPGDIRGPCPGLNTLASHGYLPRNGVATPAQIINAVQEGFNFDNQAAIFATYAAHLVDGNLITDLLSIGRKTRLTGPDPPPPASVGGLNEHGTFEGDASMTRGDAFFGNNHDFNETLFEQLVDYSNRFGGGKYNLTVAGELRFKRIQDSIATNPNFSFVDFRFFTAYGETTFPANLFVDGRRDDGQLDMDAARSFFQFSRMPDDFFRAPSPRSGTGVEVVVQAHPMQPGRNVGKINSYTVDPTSSDFSTPCLMYEKFVNITVKSLYPNPTVQLRKALNTNLDFLFQGVHHICTQVFPYGRD
notes: evolved secretion variant, mature secreted enzyme; signal peptide mutations F12Y, A14V, R15G, A21D; expressed in Saccharomyces cerevisiae BJ5464, purified by ion exchange, no tag mentioned; heme-thiolate
On to B1, for which, in “purified protein [1]” (clone 8), the Km (in general, the concentration of substrate that gives half-maximal velocity) was determined as 437 ± 53 µM; the kcat (usually the number of substrate molecules converted per active site and unit of time at saturation) was 368 ± 19 s⁻¹; the catalytic efficiency (kcat/Km) – broadly, the turnover number divided by the Michaelis constant – was found to be 842000 ± 111000 M⁻¹ s⁻¹. In the series “purified protein [2]” (setting [4]), the Michaelis constant (Km) amounted to 14 ± 2.4 µM, the kcat is 239 ± 13 s⁻¹ and the kcat/Km came to 1.68e+07 ± 3.03e+06 M⁻¹ s⁻¹.

B2: PaDa-I (Cyclocybe aegerita; A359S/A360N/F354L/G361L/I291V/L110F/V100A/V118I/V358L) (protein)
chain: B1 chain with V315L, H316S, H317N, I318L
notes: as for B1
Take B2: the Km in the series “purified protein [1]” (clone 23) stood at 376 ± 40 µM; in “purified protein [3]” it was 4920 ± 450 µM; in the series “purified protein [2]” (setting [5]), 15 ± 2 µM. Besides, the values for the catalytic constant (kcat) in “purified protein [1]” (clone 23), in “purified protein [3]” and in “purified protein [2]” (setting [5]) were 367 ± 16 s⁻¹, 151 ± 4 s⁻¹ and 250 ± 11 s⁻¹, respectively. Further, the kcat/Km was 976000 ± 112000 M⁻¹ s⁻¹ in “purified protein [1]” (clone 23), 31000 ± 3000 M⁻¹ s⁻¹ in the series “purified protein [3]” and 1.67e+07 ± 2.34e+06 M⁻¹ s⁻¹ in “purified protein [2]” (setting [5]).
